Laboratory results as given in patent US20190106498A1, “TREATMENT FOR ACUTE MYELOID LEUKEMIA” (priority 2017, published 2019).

Legend:
LSCs = assay: Methylcellulose colony assays of patient mononuclear cells (LSC number/frequency, ELDA); format: in vivo, human
Procedure: FIGS. 9A-9F αCD70 mAb treatment reduces CD34^+CD38^− AML stem/progenitor cell frequencies in AML patients. (FIG. 9A) Colony formation of P2. 10^4 BM MNCs of patient P002 at diagnosis (SCR) and 14 days after administration of ARGX110 (1 mg/kg i.v., time point 0, or C1D1) were plated in methylcellulose and colony formation was assessed 2 weeks later. (FIG. 9B) Fold change in colony formation of different patients treated with indicated doses of ARGX110. (FIG. 9C) Colony formation at limiting dilution from P2. (FIG. 9D) Stem cell frequencies at SCR and Time point 0 determined in enhanced limiting dilution experiments for P2 and different patients treated with indicated doses of ARGX110. Data are represented as mean±S.D. Statistics: (a, b, e) Student's t-test; (FIG. 9E): χ^2 test; **, P<0.01; ***, P<0.001. (FIG. 9F) Colony formation of P2. 10^4, 5×10^3, 10^3 and 10^2 BM MNCs of patient P002 at diagnosis (SCR), 14 days after administration of ARGX110 (1 mg/kg i.v., time point 0, or C1D1) and after combination treatment (“combi”) were plated in methylcellulose and colony formation was assessed 2 weeks later.
To assess bone marrow blasts, bone marrow aspirates taken at the various time points were analysed. Methylcellulose colony assays using FACS sorted monocytes (mononuclear cells (CD45^dim) were selectively sorted by excluding doublets, dead cells and lymphocytes using Annexin V and antibodies for CD19 and CD4/CD8) were used to assess the number of LSCs in the bone marrow. In addition, bone marrow blast percentages were also assessed by cell morphology and flow cytometric analysis.
To further explore the impact of the mono and combination therapies on the LSC populations in patients, methylcellulose colony assays using FACS sorted ex vivo monocytes were performed. Mononuclear cells (CD45^dim) were selectively sorted by excluding doublets, dead cells and lymphocytes using Annexin V and antibodies for CD19 and CD4/CD8 and serially plated on methylcellulose for 14 days.
Bone marrow aspirate taken at day 1 was compared to bone marrow aspirate taken before administration of the ARGX-110 loading dose. Methylcellulose colony assays using FACS sorted monocytes (mononuclear cells (CD45^dim) were selectively sorted by excluding doublets, dead cells and lymphocytes using Annexin V and antibodies for CD19 and CD4/CD8) were used to assess the number of LSCs in the bone marrow.

Numb = Numb expression in purified AML blasts of patients; format: in vivo, human; settings: monotherapy at C1D1; combination at C4D1
Procedure: FIGS. 8A-8B Purified AML blasts (FACS gate: CD45^dim SSC^low AV^−CD4^−CD8^−CD19^−) were fixed, permeabilized and cells incubated overnight with α-Numb antibody, followed by staining with a fluorescently labeled secondary antibody. DAPI was used to counterstain for DNA. Samples were acquired on an ImageStreamX® Mark II imaging flow cytometer (Amnis/EMD Millipore) and analyzed using INSPIRE™ and IDEAS® software (Amnis/EMD Millipore). FIG. 8A) Total Numb expression (Mean fluorescence intensity) was determined across the slide for bone marrow samples of one patient harvested at baseline (“screening”), after ARGX-110 monotherapy (C1D1) and after combination treatment (C4D1). FIG. 8B) Symmetrically (SD) and asymmetrically dividing (AD) cells were scored for a bone marrow patient sample at baseline (“before”) and after ARGX-110 monotherapy (after αCD70).
The level of asymmetric division in a population of LSCs can be determined by measuring the level of a cell fate determinant such as the Numb protein (Riether et al., J Exp Med. 2017 February; 214(2): 359-380, incorporated herein by reference). Increased Numb expression is indicative of an increase in asymmetric division and therefore an increase in myeloid differentiation and decreased LSC populations.

[1] = Serum pharmacokinetics of ARGX-110 (ELISA); format: in vivo, human
Procedure: FIG. 11 The serum concentration of ARGX-110 was analyzed using a validated enzyme-linked immunosorbent assay (ELISA) method. Individual patient PK plots are provided for 10 mg/kg cohort. The PK plot presents data for ARGX-110 cycle1 (D-14 pre-dose until Cycle1 D1 pre-dose).
The serum concentrations of ARGX-110 were analysed using a validated enzyme-linked immunosorbent assay (ELISA) method. The following pharmacokinetic parameters were assessed: • Cmax: maximum observed concentration; Ctrough: trough concentration; AUC∞: area under the serum concentration-time curve from time zero to infinity; AUCtau: area under the serum concentration-time curve during the dosing interval; Vd: apparent volume of distribution; CL: total systemic clearance of drug after IV administration; t1/2: half-life.
The serum concentration of ARGX-110 was analysed using a validated enzyme-linked immunosorbent assay (ELISA) method. FIG. 11 provides individual patient PK plots for the 10 mg/kg cohort. The PK plot presents data for ARGX-110 cycle 1 (D-14 pre-dose until Cycle1 D1 pre-dose).

[2] = ARGX-110 concentration in bone marrow aspirates versus plasma; format: in vivo, human
Procedure: Concentration of ARGX-110 in bone marrow aspirates was measured in limited samples and compared to the matching plasma samples.

CD70 = biological target: T1, CD70 (Homo sapiens, UniProt P32970); settings: cited from earlier work
T1 sequence (P32970 1-193): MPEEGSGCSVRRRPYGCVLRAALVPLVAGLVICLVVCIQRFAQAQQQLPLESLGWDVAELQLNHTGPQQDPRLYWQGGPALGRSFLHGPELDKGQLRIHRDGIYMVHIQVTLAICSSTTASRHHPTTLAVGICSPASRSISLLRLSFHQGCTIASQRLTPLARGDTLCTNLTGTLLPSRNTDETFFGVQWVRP

[3] = system: CD70-expressing tumor cells; settings: cited from earlier work
[4] = patient 1001002, loading dose 1 mg/kg
[5] = patient 1001005, 3 mg/kg, Cycle 7 Day 2
[6] = patient 1001007, 10 mg/kg, Cycle 4 Day 1

B1: ARGX-110: IgG1 anti-CD70 antibody with defucosylated Fc region; VH SEQ ID NO: 4, VL SEQ ID NO: 8 (antibody, V domains shown)
VH: EVQLVESGGGLVQPGGSLRLSCAASGFTFSVYYMNWVRQAPGKGLEWVSDINNEGGTTYYADSVKGRFTISRDNSKNSLYLQMNSLRAEDTAVYYCARDAGYSNHVPIFDSWGQGTLVTVSS
VL: QAVVTQEPSLTVSPGGTVTLTCGLKSGSVTSDNFPTWYQQTPGQAPRLLIYNTNTRHSGVPDRFSGSILGNKAALTITGAQADDEAEYFCALFISNPSVEFGGGTQLTVLG
modifications: IgG1, defucosylated Fc; Custom antibody fragment
reduction in LSC frequency compared to baseline (LSCs; FIG. 9F, after monotherapy (C1D1) and combination therapy (C4D1)): ~24 fold
number of cells per colony (LSCs; following therapy (data not shown)): reduced
circulating LSC levels (LSCs; monotherapy, then combination): reduced
factor of reduction of the number of LSCs in the bone marrow (LSCs; patient 1001001, single dose 1 mg/kg, day 1 vs before loading dose, ELDA): 140,000
cell number per colony (LSCs; [4]): reduced
factor of reduction of LSCs in the bone marrow (LSCs; [4]): 2
decrease of colony formation (LSCs; patient 1001002, loading dose 1 mg/kg, all informative serial dilution concentrations): greater than 50%
Numb expression (Numb): increased
half-life ([1]; 10 mg/kg): approximately 9.2 days
Cmax and AUC over the dose range studied ([1]; all cohorts): dose proportionality
CARGX-110 BM aspirate [2, 5]: 33.1 µg/mL
CARGX-110 plasma [2, 5]: 37.3 µg/mL
CARGX-110 BM aspirate [2, 6]: 117.7 µg/mL
CARGX-110 plasma [2, 6]: 126.6 µg/mL
concentration in bone marrow aspirates versus plasma ([2]; patients 1001005 and 1001007): comparable to the plasma levels
CD70-induced CD27 signalling (CD70): inhibit CD70-induced CD27 signalling
interaction of CD70 with CD27 (CD70): inhibit the interaction of CD70 with its receptor CD27
antibody dependent cellular phagocytosis (ADCP) [3]: increase antibody dependent cellular phagocytosis (ADCP) of CD70-expressing cells
lysis via ADCC and CDC [3]: lyse CD70-expressing tumor cells
ADCC functionality ([3]; defucosylated Fc (Potelligent)): increased ADCC functionality compared to a fucosylated counterpart
